In series [1] the test system is H3K9 acetyl peptide.
The subject of series [2] is H3K9 succinyl peptide.
The test system of series [3] is H3K9 malonyl peptide.
For series [4], the system named is ACS2 K628 (623-632 + WW) succinyl peptide.
Series [5] deals with GDH K503 (498-509 + WW) malonyl peptide (UniProt P00367).
Series [6] has as its system ACS2 K628 (623-632 + WW) acetyl peptide.
For series [7], the system named is KQTAR(SuK)-AMC peptide.
Series [8] relates to ACS2 K628 (623-632 + WW) malonyl peptide.
For series [9], the target named is GDH K503 (498-509 + WW) acetyl peptide (UniProt P00367).
Series [10] deals with H3 K9 (4-13 + WW) acetyl peptide (UniProt P68431).
Series [11] concerns the target H3 K9 (4-13 + WW) succinyl peptide (UniProt P68431).
Series [12] has as its target H3 K9 (4-13 + WW) malonyl peptide (UniProt P68431).
The target in series [13] is GDH K503 (498-509 + WW) succinyl peptide (UniProt P00367).

Marks after values point to notes of the source that are not given here.

Chain of Sirt5 Y102F (chain, as listed by the source Y102F): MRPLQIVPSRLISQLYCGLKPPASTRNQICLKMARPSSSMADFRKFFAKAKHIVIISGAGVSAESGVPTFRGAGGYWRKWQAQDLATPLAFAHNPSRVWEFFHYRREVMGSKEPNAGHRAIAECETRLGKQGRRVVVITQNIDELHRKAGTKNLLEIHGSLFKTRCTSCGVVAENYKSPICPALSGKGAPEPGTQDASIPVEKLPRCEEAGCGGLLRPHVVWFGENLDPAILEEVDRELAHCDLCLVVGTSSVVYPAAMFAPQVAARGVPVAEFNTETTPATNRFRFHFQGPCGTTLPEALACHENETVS
Chain of Sirt5 R105M (chain, as listed by the source R105M): as the sequence (chain, as listed by the source Y102F) above, with F102Y, R105M counted along it
Chain of human Sirt5 (chain, as listed by the source): as the sequence (chain, as listed by the source Y102F) above, with F102Y counted along it
Chain of Sirt5 H158Y (chain, as listed by the source H158Y): as the sequence (chain, as listed by the source Y102F) above, with F102Y, H158Y counted along it

Regarding human Sirt6, the “hydrolysis of acyl peptide (LC-MS)” value in series [1] is “Sirt6 and Sirt7 have no detectable activity on acetyl, malonyl, or succinyl peptides under the conditions tested”; in series [2], “Sirt6 and Sirt7 have no detectable activity on acetyl, malonyl, or succinyl peptides under the conditions tested”; in series [3], “Sirt6 and Sirt7 have no detectable activity on acetyl, malonyl, or succinyl peptides under the conditions tested”.
Sirt5 H158Y: in [2], the “Km for peptide (µM), desuccinylation” value is on record as “ND (>750)*” and the kcat/Km (s^-1M^-1), desuccinylation was 75 s^-1M^-1.
With Sirt5 R105M, in [1], the “Km for peptide (µM), deacetylation” value is on record as “ND (>750)*” and the kcat/Km (s^-1M^-1), deacetylation came out at 0.5 s^-1M^-1. In addition, in series [2], the “Km for peptide (µM), desuccinylation” value is “ND (>750)*” and the kcat/Km (s^-1M^-1), desuccinylation was 0.9 s^-1M^-1.
Regarding Sirt5 Y102F, in series [1], the “Km for peptide (µM), deacetylation” value was “ND (>750)*” and the kcat/Km (s^-1M^-1), deacetylation was determined as 2 s^-1M^-1. For the same substance, in series [2], the “Km for peptide (µM), desuccinylation” value is on record as “ND (>750)*” and the kcat/Km (s^-1M^-1), desuccinylation was determined as 397 s^-1M^-1.
With human Sirt5, in series [1], the “Km for acetyl peptide (µM)” value was “ND (>750)*”; the “Km for peptide (µM), deacetylation” value is reported as “ND (>750)*”; the “hydrolysis of acyl peptide (LC-MS)” value is on record as “with Sirt5, very little hydrolysis of the acetyl peptide was observed”; the kcat/Km (s^-1M^-1) came out at 2 s^-1M^-1. In series [1], the kcat/Km (s^-1M^-1), deacetylation was determined as 2 s^-1M^-1. Further, in [4], the Peptide Km (µM), desuccinylation is 450 µM; the kcat (s^-1), desuccinylation worked out at 0.268 s⁻¹; the kcat/Km (s^-1M^-1), desuccinylation was found to be 600 s^-1M^-1. Moreover, in series [2], the Km for peptide (µM), desuccinylation was found to be 41 µM; the “hydrolysis of acyl peptide (LC-MS)” value is “the malonyl and succinyl peptides were hydrolyzed significantly”; the kcat (s^-1), desuccinylation turned out to be 0.029 s⁻¹; the kcat/Km (s^-1M^-1), desuccinylation was 710 s^-1M^-1. In series [5], the Peptide Km (µM), demalonylation came to 8.7 µM; the kcat (s^-1), demalonylation worked out at 0.014 s⁻¹; the kcat/Km (s^-1M^-1), demalonylation came out at 1600 s^-1M^-1. Besides, in [6], the “Peptide Km (µM), deacetylation” value is “ND (>750)” and the kcat/Km (s^-1M^-1), deacetylation was found to be 18 s^-1M^-1. For the same substance, in series [7], the “percent hydrolysis in 3 hrs, 1 µM Sirt5 (HPLC)” value was 10% and 60% hydrolysis by 1 and 5 µM of Sirt5 in 3 hrs; the “percent hydrolysis in 3 hrs, 5 µM Sirt5 (HPLC)” value was 10% and 60% hydrolysis by 1 and 5 µM of Sirt5 in 3 hrs. Besides, in series [8], the Peptide Km (µM), demalonylation was determined as 150 µM; the kcat (s^-1), demalonylation is 0.079 s⁻¹; the kcat/Km (s^-1M^-1), demalonylation was found to be 520 s^-1M^-1. In series [9], the “Peptide Km (µM), deacetylation” value is on record as “ND (>750)” and the kcat/Km (s^-1M^-1), deacetylation is below 2 s^-1M^-1. In series [10], the “Peptide Km (µM), deacetylation” value is listed as “ND (>750)” and the kcat/Km (s^-1M^-1), deacetylation was 7.8 s^-1M^-1. In series [11], the Peptide Km (µM), desuccinylation stood at 5.8 µM; the kcat (s^-1), desuccinylation turned out to be 0.025 s⁻¹; the kcat/Km (s^-1M^-1), desuccinylation amounted to 4300 s^-1M^-1. In addition, the “hydrolysis of acyl peptide (LC-MS)” value in series [3] was “the malonyl and succinyl peptides were hydrolyzed significantly”. Also, in series [12], the Peptide Km (µM), demalonylation stood at 6.1 µM; the kcat (s^-1), demalonylation came to 0.037 s⁻¹; the kcat/Km (s^-1M^-1), demalonylation was 6100 s^-1M^-1. In addition, in series [13], the Peptide Km (µM), desuccinylation turned out to be 14 µM; the kcat (s^-1), desuccinylation worked out at 0.028 s⁻¹; the kcat/Km (s^-1M^-1), desuccinylation was 2000 s^-1M^-1.
